The results in this text go back to doi:10.1101/334433 (bioRxiv, 2018).

This assay has as its target T1, GST-IRF4 (human, UniProt Q15306 1-451).
T1 sequence (looked up): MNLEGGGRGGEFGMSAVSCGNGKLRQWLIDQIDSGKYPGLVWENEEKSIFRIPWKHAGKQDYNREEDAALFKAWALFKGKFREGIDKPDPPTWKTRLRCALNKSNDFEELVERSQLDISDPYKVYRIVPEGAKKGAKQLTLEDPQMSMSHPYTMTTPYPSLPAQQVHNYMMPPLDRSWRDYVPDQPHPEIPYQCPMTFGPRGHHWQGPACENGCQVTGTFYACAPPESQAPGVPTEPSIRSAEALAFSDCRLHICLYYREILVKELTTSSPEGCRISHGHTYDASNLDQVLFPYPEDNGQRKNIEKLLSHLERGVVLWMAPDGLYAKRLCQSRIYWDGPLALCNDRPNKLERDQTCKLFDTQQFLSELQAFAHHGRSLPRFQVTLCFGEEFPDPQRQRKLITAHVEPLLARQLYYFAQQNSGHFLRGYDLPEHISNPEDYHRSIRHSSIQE
Nature of the assay: pull-down.

B1: purified His-Peli1 (enzyme, human, UniProt Q96FA3 1-418, looked up)
chain: MFSPDQENHPSKAPVKYGELIVLGYNGSLPNGDRGRRKSRFALFKRPKANGVKPSTVHIACTPQAAKAISNKDQHSISYTLSRAQTVVVEYTHDSNTDMFQIGRSTESPIDFVVTDTVPGSQSNSDTQSVQSTISRFACRIICERNPPFTARIYAAGFDSSKNIFLGEKAAKWKTSDGQMDGLTTNGVLVMHPRNGFTEDSKPGIWREISVCGNVFSLRETRSAQQRGKMVEIETNQLQDGSLIDLCGATLLWRTAEGLSHTPTVKHLEALRQEINAARPQCPVGFNTLAFPSMKRKDVVDEKQPWVYLNCGHVHGYHNWGNKEERDGKDRECPMCRSVGPYVPLWLGCEAGFYVDAGPPTHAFSPCGHVCSEKTTAYWSQIPLPHGTHTFHAACPFCAHQLAGEQGYIRLIFQGPLD
For B1, the binding result is listed as “binds”.
